Test results from the supplement of paper PMC10065799, “High-throughput profiling of sequence recognition by tyrosine kinases and SH2 domains using bacterial peptide display” (eLife, 2023).

Key:
SHP2-C SH2 = assay: SH2 binding enrichment of the phosphorylated peptide, bacterial display (enrichment ratio); higher = better substrate or ligand; peptides without Tyr show the background
c-Src SH2 = assay: as above
Grb2 SH2 = Grb2 SH2 (UniProt P62993); assay: as above
Fes = Fes (UniProt P07332); assay: phosphorylation enrichment, bacterial display (enrichment ratio); higher = better substrate or ligand; peptides without Tyr show the background
MERTK = MERTK (UniProt Q12866); assay: as above
FGFR3 = FGFR3 (UniProt P22607); assay: as above
FGFR3, sequence (P22607 whole entry, looked up): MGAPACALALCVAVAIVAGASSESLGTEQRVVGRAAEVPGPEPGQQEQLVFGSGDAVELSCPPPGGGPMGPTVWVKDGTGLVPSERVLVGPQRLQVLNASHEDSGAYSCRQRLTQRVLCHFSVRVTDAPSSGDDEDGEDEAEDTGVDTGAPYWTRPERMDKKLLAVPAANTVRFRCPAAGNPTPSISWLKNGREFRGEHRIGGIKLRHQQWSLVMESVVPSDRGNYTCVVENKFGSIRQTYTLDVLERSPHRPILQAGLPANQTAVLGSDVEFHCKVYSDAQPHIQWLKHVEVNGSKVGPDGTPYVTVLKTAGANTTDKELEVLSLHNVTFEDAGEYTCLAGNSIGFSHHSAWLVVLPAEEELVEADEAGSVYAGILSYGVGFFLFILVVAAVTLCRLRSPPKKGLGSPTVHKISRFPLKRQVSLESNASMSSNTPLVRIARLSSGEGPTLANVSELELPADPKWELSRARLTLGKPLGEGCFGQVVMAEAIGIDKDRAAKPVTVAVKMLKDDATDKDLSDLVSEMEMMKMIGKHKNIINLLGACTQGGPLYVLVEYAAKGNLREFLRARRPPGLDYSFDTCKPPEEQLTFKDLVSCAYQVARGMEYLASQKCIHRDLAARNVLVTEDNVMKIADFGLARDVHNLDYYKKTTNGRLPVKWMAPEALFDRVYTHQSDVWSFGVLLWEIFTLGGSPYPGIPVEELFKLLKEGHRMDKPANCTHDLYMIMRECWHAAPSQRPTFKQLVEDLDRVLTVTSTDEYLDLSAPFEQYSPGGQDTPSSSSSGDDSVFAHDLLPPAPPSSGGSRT

Fer (mouse) = assay: as above
c-Src = assay: as above
Jak2 = Jak2 (UniProt O60674); assay: as above
Jak2, sequence (O60674 whole entry, looked up): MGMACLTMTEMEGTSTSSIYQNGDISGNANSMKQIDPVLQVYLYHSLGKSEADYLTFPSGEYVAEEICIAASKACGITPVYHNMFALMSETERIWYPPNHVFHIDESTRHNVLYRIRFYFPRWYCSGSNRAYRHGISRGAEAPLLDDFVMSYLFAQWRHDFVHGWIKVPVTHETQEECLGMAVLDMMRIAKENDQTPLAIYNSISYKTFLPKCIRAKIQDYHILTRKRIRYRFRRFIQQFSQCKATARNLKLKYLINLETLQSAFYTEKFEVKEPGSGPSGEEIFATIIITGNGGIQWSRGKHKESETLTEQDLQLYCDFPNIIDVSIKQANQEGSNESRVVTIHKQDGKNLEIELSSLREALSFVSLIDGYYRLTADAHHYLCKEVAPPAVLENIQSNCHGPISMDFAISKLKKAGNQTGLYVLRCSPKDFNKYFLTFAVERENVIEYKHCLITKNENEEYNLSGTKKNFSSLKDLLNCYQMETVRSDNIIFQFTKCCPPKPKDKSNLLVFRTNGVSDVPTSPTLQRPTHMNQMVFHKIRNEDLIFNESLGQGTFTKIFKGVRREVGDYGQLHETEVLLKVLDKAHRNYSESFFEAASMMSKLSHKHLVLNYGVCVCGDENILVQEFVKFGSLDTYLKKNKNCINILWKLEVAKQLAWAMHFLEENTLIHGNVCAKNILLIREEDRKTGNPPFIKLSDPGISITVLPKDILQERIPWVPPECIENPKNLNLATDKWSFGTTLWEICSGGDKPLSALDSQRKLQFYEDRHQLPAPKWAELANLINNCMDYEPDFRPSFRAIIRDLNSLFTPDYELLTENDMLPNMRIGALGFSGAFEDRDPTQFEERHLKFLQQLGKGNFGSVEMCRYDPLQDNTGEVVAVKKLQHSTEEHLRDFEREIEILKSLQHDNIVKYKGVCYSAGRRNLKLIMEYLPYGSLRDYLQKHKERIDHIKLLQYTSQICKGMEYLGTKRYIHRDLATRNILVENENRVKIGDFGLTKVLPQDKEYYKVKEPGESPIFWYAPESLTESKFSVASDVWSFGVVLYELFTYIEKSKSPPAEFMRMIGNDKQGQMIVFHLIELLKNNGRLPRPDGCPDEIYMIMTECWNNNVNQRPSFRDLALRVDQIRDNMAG

Hck = Hck (UniProt P08631); assay: as above
Hck, sequence (P08631 whole entry, looked up): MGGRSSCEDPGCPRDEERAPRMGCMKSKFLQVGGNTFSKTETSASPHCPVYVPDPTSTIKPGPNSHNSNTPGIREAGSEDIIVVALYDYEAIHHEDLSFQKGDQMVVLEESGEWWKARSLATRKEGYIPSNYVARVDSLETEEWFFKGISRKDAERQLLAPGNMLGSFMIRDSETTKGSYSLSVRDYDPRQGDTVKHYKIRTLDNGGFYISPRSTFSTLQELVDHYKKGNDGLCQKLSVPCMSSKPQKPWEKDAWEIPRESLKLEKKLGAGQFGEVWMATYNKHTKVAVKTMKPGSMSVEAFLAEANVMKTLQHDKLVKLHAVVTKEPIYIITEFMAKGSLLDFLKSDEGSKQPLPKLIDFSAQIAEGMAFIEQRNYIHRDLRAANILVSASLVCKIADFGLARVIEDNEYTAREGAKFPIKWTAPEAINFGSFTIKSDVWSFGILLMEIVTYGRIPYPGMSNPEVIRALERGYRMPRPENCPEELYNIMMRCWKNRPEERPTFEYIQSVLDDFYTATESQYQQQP

FGFR1 = FGFR1 (UniProt P11362); assay: as above
FGFR1, sequence (P11362 whole entry, looked up): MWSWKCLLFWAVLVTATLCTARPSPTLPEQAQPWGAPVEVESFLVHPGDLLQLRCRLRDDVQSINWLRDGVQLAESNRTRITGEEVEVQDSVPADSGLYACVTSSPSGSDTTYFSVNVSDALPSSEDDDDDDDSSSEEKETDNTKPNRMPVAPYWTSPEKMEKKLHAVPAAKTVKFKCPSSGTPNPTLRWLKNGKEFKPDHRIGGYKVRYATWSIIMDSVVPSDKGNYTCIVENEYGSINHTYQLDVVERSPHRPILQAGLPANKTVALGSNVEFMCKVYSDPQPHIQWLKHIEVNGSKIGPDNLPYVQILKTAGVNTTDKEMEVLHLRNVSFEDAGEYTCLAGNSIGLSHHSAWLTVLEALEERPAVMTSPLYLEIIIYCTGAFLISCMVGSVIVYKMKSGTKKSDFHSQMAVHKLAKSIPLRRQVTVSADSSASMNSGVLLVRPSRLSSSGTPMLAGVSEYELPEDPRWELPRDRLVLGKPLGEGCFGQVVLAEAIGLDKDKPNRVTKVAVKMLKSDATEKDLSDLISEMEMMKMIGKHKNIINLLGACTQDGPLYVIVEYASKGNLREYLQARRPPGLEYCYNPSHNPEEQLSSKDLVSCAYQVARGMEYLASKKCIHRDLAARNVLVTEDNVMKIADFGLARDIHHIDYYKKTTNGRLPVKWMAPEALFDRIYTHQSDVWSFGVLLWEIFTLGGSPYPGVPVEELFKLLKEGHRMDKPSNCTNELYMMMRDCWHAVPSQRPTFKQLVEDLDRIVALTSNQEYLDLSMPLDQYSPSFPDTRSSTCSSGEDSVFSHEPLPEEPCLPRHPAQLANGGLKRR

EPHB1 = EPHB1 (UniProt P54762); assay: as above
EPHB1, sequence (P54762 whole entry, looked up): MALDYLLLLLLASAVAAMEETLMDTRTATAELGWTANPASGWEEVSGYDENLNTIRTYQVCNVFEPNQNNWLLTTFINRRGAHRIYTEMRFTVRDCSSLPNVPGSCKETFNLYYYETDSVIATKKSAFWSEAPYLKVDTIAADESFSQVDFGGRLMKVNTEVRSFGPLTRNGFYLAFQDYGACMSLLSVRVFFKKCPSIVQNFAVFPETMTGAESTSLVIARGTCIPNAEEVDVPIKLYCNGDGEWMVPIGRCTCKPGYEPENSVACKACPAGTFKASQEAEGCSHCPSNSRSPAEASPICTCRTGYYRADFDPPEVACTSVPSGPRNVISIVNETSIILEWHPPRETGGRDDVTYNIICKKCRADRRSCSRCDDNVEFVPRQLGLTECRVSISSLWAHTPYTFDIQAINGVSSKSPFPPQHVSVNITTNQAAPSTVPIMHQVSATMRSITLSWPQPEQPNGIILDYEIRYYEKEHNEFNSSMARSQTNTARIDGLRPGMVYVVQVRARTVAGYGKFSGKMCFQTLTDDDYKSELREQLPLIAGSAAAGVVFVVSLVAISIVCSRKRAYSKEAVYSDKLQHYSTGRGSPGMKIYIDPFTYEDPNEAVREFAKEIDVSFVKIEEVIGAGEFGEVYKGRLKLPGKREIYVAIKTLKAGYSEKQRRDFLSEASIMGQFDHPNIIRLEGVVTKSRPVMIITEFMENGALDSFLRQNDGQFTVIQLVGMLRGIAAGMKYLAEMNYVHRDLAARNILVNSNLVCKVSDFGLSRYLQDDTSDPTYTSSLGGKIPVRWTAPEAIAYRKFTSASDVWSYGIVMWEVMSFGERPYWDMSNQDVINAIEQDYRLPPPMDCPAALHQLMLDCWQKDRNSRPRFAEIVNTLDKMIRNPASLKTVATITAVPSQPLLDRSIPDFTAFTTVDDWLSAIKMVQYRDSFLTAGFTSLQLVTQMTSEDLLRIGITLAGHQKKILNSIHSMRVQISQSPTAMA

c-Abl (mouse) = assay: as above
Fyn = Fyn (UniProt P06241); assay: as above
Fyn, sequence (P06241 whole entry, looked up): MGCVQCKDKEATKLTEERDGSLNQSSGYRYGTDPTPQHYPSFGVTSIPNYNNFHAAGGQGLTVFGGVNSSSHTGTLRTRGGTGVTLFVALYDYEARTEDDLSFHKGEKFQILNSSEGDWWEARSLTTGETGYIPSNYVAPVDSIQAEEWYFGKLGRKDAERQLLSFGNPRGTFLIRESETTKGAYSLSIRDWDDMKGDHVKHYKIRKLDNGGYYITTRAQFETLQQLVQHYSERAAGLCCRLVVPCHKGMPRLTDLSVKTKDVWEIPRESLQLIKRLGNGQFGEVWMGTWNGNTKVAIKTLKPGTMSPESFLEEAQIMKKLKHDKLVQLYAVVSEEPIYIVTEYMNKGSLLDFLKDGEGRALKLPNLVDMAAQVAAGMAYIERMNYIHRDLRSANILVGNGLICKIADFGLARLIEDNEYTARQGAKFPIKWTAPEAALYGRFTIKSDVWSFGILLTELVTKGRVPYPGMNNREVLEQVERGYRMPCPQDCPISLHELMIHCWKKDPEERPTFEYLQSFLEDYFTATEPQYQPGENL

AncSZ = assay: as above
EPHB2 = EPHB2 (UniProt P29323); assay: as above
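Throughout, for SH2 binding enrichment of the phosphorylated peptide, bacterial display: peptide library displayed on the E. coli surface as eCPX fusions, selected cells deep-sequenced, score is each peptide's frequency after selection divided by its frequency in the input.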
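Throughout, for phosphorylation enrichment, bacterial display: 11-residue human phosphosite peptides and single-mutation variants displayed on the E. coli surface, counted by deep sequencing, each peptide's frequency after selection divided by its frequency in the unselected input library; frequency after pTyr selection over input frequency; kinase dosed for 20-30% of maximal phosphorylation in three min.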

Row | Sequence | SH2 binding enrichment (SHP2-C SH2) | SH2 binding enrichment (c-Src SH2) | SH2 binding enrichment (Grb2 SH2) | phosphorylation enrichment (Fes) | phosphorylation enrichment (MERTK) | phosphorylation enrichment (FGFR3) | phosphorylation enrichment (Fer (mouse)) | phosphorylation enrichment (c-Src) | phosphorylation enrichment (Jak2) | phosphorylation enrichment (Hck) | phosphorylation enrichment (FGFR1) | phosphorylation enrichment (EPHB1) | phosphorylation enrichment (c-Abl (mouse)) | phosphorylation enrichment (Fyn) | phosphorylation enrichment (AncSZ) | phosphorylation enrichment (EPHB2)
1 | SVTCAYSPALN [TP53_Y126_T125A] | 0.66 | 0.457 | 0.802 | 1.2 | 0.525 | 0.757 | 0.64 | 0.583 | 0.98 | 0.608 | 0.557 | 0.726 | 0.79 | 0.616 | 1.26 | 0.577
2 | SVTCTYSPALD [TP53_Y126_N131D] | 0.532 | 0.599 | 1.01 | 1.76 | 0.466 | 1.01 | 0.821 | 0.745 | 1.51 | 0.656 | 0.616 | 0.882 | 1.24 | 0.641 | 1.74 | 0.816
3 | SVVVPYEPPDV [TP53_Y220_E224D] | 0.73 | 0.735 | 0.89 | 0.932 | 0.337 | 0.612 | 0.456 | 0.415 | 0.752 | 0.447 | 0.524 | 0.554 | 0.603 | 0.429 | 0.984 | 0.528
4 | SYCYRYRCAPR [SUMF1_Y344_A348P] | 0.63 | 0.434 | 0.625 | 0.572 | 0.458 | 0.716 | 0.528 | 0.488 | 0.459 | 0.43 | 0.511 | 0.441 | 0.493 | 0.436 | 0.644 | 0.418
5 | TDDMRYPMKSE [TGDS_Y302_N298D] | 0.626 | 0.439 | 0.827 | 0.863 | 0.488 | 0.621 | 0.518 | 0.455 | 0.694 | 0.42 | 0.529 | 0.378 | 0.651 | 0.43 | 0.77 | 0.527
6 | TEALFYTDDPA [ADPRS_Y75_T79P_YF] | 0.397 | 0.626 | 0.636 | 1.82 | 0.699 | 1.3 | 0.863 | 0.797 | 1.65 | 0.76 | 0.734 | 1.05 | 1.25 | 0.645 | 1.62 | 0.894
7 | TEDAEYDVQSK [PTCHD3_Y335_P333A] | 0.698 | 0.644 | 1.01 | 1.14 | 0.492 | 0.689 | 0.606 | 0.535 | 1.07 | 0.591 | 0.515 | 0.611 | 0.848 | 0.539 | 1.38 | 0.609
8 | TEQMAYCPIQC [SHC4_Y403] | 0.643 | 0.777 | 0.793 | 1.02 | 0.678 | 0.737 | 1.14 | 0.949 | 1.26 | 0.949 | 0.609 | 0.434 | 0.754 | 0.421 | 1.17 | 0.676
9 | TLARLYHPDST [LRIG1_Y1029] | 0.681 | 0.372 | 0.646 | 0.743 | 0.355 | 0.429 | 0.364 | 0.302 | 0.609 | 0.416 | 0.344 | 0.422 | 0.672 | 0.575 | 0.508 | 0.549
10 | TLKDVYDDGKY [RPS6KA3_Y483] | 0.737 | 0.528 | 0.85 | 1.12 | 0.557 | 0.64 | 0.506 | 0.62 | 0.909 | 0.706 | 0.557 | 0.51 | 0.758 | 0.58 | 1.02 | 0.497
11 | TLKVGYTEKQR [EPHA3_Y659] | 0.714 | 0.486 | 1.08 | 0.378 | 0.322 | 0.351 | 0.386 | 0.328 | 0.407 | 0.353 | 0.404 | 0.259 | 0.369 | 0.27 | 0.417 | 0.299
12 | TLQSMSGCDVG [HLA-B_Y123_Y123S] | 0.488 | 0.491 | 0.836 | 0.791 | 0.421 | 0.932 | 0.499 | 0.406 | 1.38 | 0.482 | 0.48 | 0.488 | 0.536 | 0.42 | 0.677 | 0.601
13 | TPIFPYLLPKS [PLD2_Y580_T577I_YF] | 0.451 | 0.393 | 0.877 | 0.685 | 0.538 | 1.57 | 0.551 | 0.489 | 0.723 | 0.64 | 0.825 | 0.467 | 0.7 | 0.799 | 0.632 | 0.463

Now from value to sequence, other results behind:

Row | SH2 binding enrichment (SHP2-C SH2) | SH2 binding enrichment (c-Src SH2) | SH2 binding enrichment (Grb2 SH2) | Sequence | phosphorylation enrichment (Fes) | phosphorylation enrichment (MERTK) | phosphorylation enrichment (FGFR3) | phosphorylation enrichment (Fer (mouse)) | phosphorylation enrichment (c-Src) | phosphorylation enrichment (Jak2) | phosphorylation enrichment (Hck) | phosphorylation enrichment (FGFR1) | phosphorylation enrichment (EPHB1) | phosphorylation enrichment (c-Abl (mouse)) | phosphorylation enrichment (Fyn) | phosphorylation enrichment (AncSZ) | phosphorylation enrichment (EPHB2)
14 | 0.554 | 0.425 | 0.635 | SVTCTYSPAPN [TP53_Y126_L130P] | 1.14 | 0.362 | 0.83 | 0.503 | 0.509 | 0.999 | 0.501 | 0.495 | 0.517 | 0.776 | 0.435 | 1.12 | 0.581
15 | 0.574 | 0.422 | 0.698 | SVTCTYTPALN [TP53_Y126_S127T] | 1.29 | 0.404 | 0.811 | 0.478 | 0.455 | 1.24 | 0.511 | 0.5 | 0.633 | 0.88 | 0.49 | 1.43 | 0.639
16 | 0.787 | 0.491 | 0.672 | SVTSTYSPALN [TP53_Y126_C124S] | 0.712 | 0.379 | 0.398 | 0.436 | 0.488 | 0.465 | 0.459 | 0.511 | 0.437 | 0.586 | 0.432 | 0.641 | 0.426
17 | 0.778 | 0.769 | 0.874 | SVVVPYEPPED [TP53_Y220_V225D] | 1.4 | 0.441 | 0.759 | 0.549 | 0.491 | 1.15 | 0.544 | 0.545 | 0.607 | 0.772 | 0.479 | 1.31 | 0.641
18 | 0.658 | 0.987 | 0.88 | SVVVPYEPPEF [TP53_Y220_V225F] | 1.05 | 0.374 | 0.598 | 0.449 | 0.509 | 0.993 | 0.461 | 0.49 | 0.558 | 0.743 | 0.427 | 1.01 | 0.524
19 | 0.717 | 0.683 | 0.741 | SVVVPYEPPEL [TP53_Y220_V225L] | 0.869 | 0.424 | 0.666 | 0.491 | 0.437 | 0.811 | 0.503 | 0.459 | 0.489 | 0.54 | 0.494 | 0.905 | 0.524
20 | 0.689 | 1.66 | 0.972 | SVVVPYESPEV [TP53_Y220_P222S] | 1.13 | 0.463 | 0.647 | 0.488 | 0.509 | 0.867 | 0.566 | 0.561 | 0.57 | 0.73 | 0.578 | 1.36 | 0.609
21 | 0.761 | 0.729 | 0.722 | SVVVTYEPPEV [TP53_Y220_P219T] | 1.32 | 0.779 | 0.708 | 0.752 | 0.623 | 0.969 | 0.697 | 0.493 | 1.06 | 0.961 | 0.516 | 1.57 | 1.61
22 | 0.956 | 0.82 | 1.29 | TCFDKYTGSTF [FN1_Y101_N104S_YF] | 1.12 | 0.448 | 0.699 | 0.469 | 0.529 | 0.646 | 0.51 | 0.443 | 0.494 | 0.537 | 0.408 | 0.739 | 0.533
23 | 0.714 | 0.507 | 0.968 | TDHLRYFDSNK [ARAP1_Y359] | 0.794 | 0.466 | 0.573 | 0.456 | 0.41 | 0.665 | 0.451 | 0.414 | 0.611 | 1.14 | 0.428 | 1.04 | 0.442
24 | 2.07 | 1.51 | 0.751 | TDLAYYLVREG [ASL_Y376_K380E] | 0.905 | 1.34 | 7.06 | 0.466 | 1.67 | 3.04 | 0.955 | 9.61 | 0.578 | 0.579 | 0.734 | 1.54 | 0.706
25 | 0.847 | 0.856 | 0.912 | TEALYYTDDTA [ADPRS_Y75] | 2.09 | 4.21 | 4.22 | 1.97 | 1.9 | 0.833 | 1.82 | 3.91 | 1.31 | 0.633 | 2.63 | 1.46 | 0.78
26 | 0.625 | 0.46 | 1 | TESALYGCTIL [MAP3K21_Y724_V728I] | 1.62 | 1.57 | 1.19 | 4.72 | 6.06 | 1.65 | 4.18 | 0.5 | 0.68 | 1.59 | 6 | 1.17 | 0.989
27 | 1.01 | 0.566 | 0.905 | TFAVSYLPDMS [FLNC_Y1602_T1599A_YF] | 1.21 | 0.441 | 0.816 | 0.439 | 0.378 | 0.741 | 0.5 | 0.5 | 0.598 | 0.61 | 0.466 | 0.939 | 0.392
28 | 0.81 | 1.01 | 0.76 | TFEYRYLEDRD [CNOT3_Y746] | 1.35 | 0.493 | 0.848 | 0.472 | 0.537 | 1.02 | 0.534 | 0.935 | 0.623 | 0.827 | 0.545 | 1.16 | 0.504
29 | 0.757 | 0.519 | 0.813 | TINPIHEHVGF [CHN1_Y143_Y143H_YF] | 0.619 | 0.328 | 0.441 | 0.397 | 0.339 | 0.429 | 0.299 | 0.393 | 0.321 | 0.477 | 0.335 | 0.433 | 0.346
30 | 1.15 | 0.446 | 0.886 | TKDTIYKQPMF [GBA_Y451_F450I] | 0.821 | 0.499 | 0.57 | 0.391 | 0.6 | 0.907 | 0.8 | 0.406 | 0.503 | 17.4 | 0.502 | 0.704 | 0.439
31 | 0.954 | 0.614 | 1.06 | TLEKYYFAFPG [SLC1A1_Y51_F50Y] | 1.09 | 11.5 | 12 | 0.632 | 6.16 | 8.54 | 3.38 | 14.6 | 7.36 | 9.74 | 4.5 | 1.75 | 11.1
32 | 0.593 | 0.493 | 0.773 | TLERHYKELQA [SPTBN2_Y834_E835K] | 0.787 | 0.571 | 0.509 | 0.415 | 0.472 | 0.704 | 0.375 | 0.449 | 0.363 | 0.612 | 0.446 | 0.713 | 0.546
33 | 1.83 | 1.93 | 0.814 | TLSGIYQYSIA [FOXL2_Y81_I84S] | 0.899 | 6.7 | 1.03 | 8.33 | 4.21 | 0.65 | 3.56 | 0.952 | 2.73 | 1.53 | 4.22 | 1.24 | 1.98
